Measurements: publication PMC8533642 (Journal of medicinal chemistry, 2021)
Each block holds one molecule with its values, some of them ahead of it. Square brackets hold non-standard residues; d marks the D form. Peptide text beside a SMILES is read from it. dPhe(4-I) = N[C@H](Cc1ccc(I)cc1)C(=O)O; 2Nal = N[C@@H](Cc1ccc2ccccc2c1)C(=O)O; d2Nal = N[C@H](Cc1ccc2ccccc2c1)C(=O)O

Assays:
mMC3R = mMC3R (Mus musculus, UniProt P33033); assay: AlphaScreen cAMP agonist assay, HEK293 cells stably expressing mMC3R; type: cell-based; conditions: at 100 μM
mMC1R = mMC1R (Mus musculus, UniProt Q01727); assay: AlphaScreen cAMP agonist assay, HEK293 cells stably expressing mMC1R; type: cell-based
mMC5R = mMC5R (Mus musculus, UniProt P41149); assay: AlphaScreen cAMP agonist assay, HEK293 cells stably expressing mMC5R; type: cell-based; conditions: at 100 μM
[1] = biological target: mouse melanocortin-1 receptor (mouse) (UniProt Q01727)
[2] = biological target: mouse melanocortin-3 receptor (mouse) (UniProt P33033)
[3] = biological target: mouse melanocortin-4 receptor (mouse) (UniProt P56450)
[4] = biological target: mouse melanocortin-5 receptor (mouse) (UniProt P41149)
[5] = biological target: mouse melanocortin-3 receptor (mouse) (UniProt P33033); remark: listed apart in the source
[6] = biological target: mouse melanocortin-4 receptor (mouse) (UniProt P56450); remark: listed apart in the source

Chain of mouse melanocortin-4 receptor (mouse) (P56450 whole entry): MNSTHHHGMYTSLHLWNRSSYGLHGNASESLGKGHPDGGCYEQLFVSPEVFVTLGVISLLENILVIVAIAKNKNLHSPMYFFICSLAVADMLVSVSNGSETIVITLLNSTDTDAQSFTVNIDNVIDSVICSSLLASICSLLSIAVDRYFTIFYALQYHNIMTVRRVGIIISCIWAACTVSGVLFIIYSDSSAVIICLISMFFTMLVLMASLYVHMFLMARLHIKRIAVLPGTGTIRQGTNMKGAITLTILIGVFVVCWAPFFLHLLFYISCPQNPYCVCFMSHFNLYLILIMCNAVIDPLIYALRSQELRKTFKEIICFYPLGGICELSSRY
Chain of mouse melanocortin-1 receptor (mouse) (Q01727 whole entry): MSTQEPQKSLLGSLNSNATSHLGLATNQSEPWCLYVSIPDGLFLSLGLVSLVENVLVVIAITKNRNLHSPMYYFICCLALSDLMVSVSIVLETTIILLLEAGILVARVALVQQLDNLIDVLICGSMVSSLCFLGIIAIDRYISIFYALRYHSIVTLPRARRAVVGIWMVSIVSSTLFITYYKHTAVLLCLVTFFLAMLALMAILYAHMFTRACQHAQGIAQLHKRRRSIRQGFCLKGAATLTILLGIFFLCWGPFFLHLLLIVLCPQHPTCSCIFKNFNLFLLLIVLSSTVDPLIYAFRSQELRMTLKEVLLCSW
Chain of mouse melanocortin-5 receptor (mouse) (P41149 whole entry): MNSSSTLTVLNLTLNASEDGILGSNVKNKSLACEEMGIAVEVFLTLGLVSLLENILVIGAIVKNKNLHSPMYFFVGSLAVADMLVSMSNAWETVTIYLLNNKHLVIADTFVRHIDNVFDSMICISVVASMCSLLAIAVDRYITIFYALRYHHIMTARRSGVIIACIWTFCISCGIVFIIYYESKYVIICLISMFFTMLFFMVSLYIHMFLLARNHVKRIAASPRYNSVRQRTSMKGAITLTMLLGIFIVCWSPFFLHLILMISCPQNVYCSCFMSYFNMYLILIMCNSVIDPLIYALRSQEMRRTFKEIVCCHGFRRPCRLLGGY
Chain of mMC3R (P33033 whole entry): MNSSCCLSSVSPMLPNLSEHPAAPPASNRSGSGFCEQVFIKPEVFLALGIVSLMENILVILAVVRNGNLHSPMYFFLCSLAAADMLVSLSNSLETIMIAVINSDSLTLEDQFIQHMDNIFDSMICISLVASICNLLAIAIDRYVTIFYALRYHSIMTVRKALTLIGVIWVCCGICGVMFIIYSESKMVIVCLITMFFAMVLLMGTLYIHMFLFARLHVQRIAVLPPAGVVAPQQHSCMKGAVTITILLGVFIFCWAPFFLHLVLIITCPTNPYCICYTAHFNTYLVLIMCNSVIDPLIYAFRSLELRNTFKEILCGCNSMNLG
Chain of mouse melanocortin-3 receptor (mouse) (P33033 whole entry): as above
Chain of mMC1R (Q01727 whole entry): as the sequence (Q01727 whole entry) above
Chain of mMC5R (P41149 whole entry): as the sequence (P41149 whole entry) above

Molecule: CC(=O)N[C@H](Cc1ccc2ccccc2c1)C(=O)N[C@@H](CCCNC(=N)N)C(=O)N[C@@H](Cc1ccc2ccccc2c1)C(=O)N[C@H](CCCCN)C(N)=O [Peptide 22, Ac-DNal(2’)-Arg-Nal(2’)-DLys-NH2] (Ac-[d2Nal]R[2Nal][dK]-NH2)
mMC1R partial agonist percentage of receptor activation relative to NDP-MSH (mMC1R; partial agonists): 50 % NDP

Molecule: Ac-DNal(2’)-Arg-DNal(2’)-Arg-NH2 (peptide)
% receptor activation relative to NDP-MSH (partial agonist), cAMP AlphaScreen [1]: 60% | apparent EC50 (partial agonist), cAMP AlphaScreen [1]: 1 µM | agonist EC50, cAMP AlphaScreen [2]: > 100 µM | agonist EC50, cAMP AlphaScreen [3]: > 100 µM | agonist EC50, cAMP AlphaScreen [4]: > 100 µM | pA2, antagonism of NDP-MSH at mMC3R, Schild analysis, cAMP AlphaScreen [5]: 6.1 | pA2, antagonism of NDP-MSH at mMC4R, Schild analysis, cAMP AlphaScreen [6]: 8.3

Molecule: Ac-DNal(2’)-Arg-DPhe(pI)-Arg-NH2 (peptide)
agonist EC50, cAMP AlphaScreen [1]: 0.04 µM | agonist EC50, cAMP AlphaScreen [2]: > 100 µM | agonist EC50, cAMP AlphaScreen [3]: > 100 µM | agonist EC50, cAMP AlphaScreen [4]: > 100 µM | pA2, antagonism of NDP-MSH at mMC3R, Schild analysis, cAMP AlphaScreen [5]: 7.1 | pA2, antagonism of NDP-MSH at mMC4R, Schild analysis, cAMP AlphaScreen [6]: 8.6

Molecule: Ac-DNal(2’)-DNal(2’)-Trp-DLys-NH2 (peptide)
% of maximal NDP-MSH response at 100 μM, cAMP AlphaScreen [1]: 25% | agonist EC50, cAMP AlphaScreen [2]: > 100 µM | % of maximal NDP-MSH response at 100 μM, cAMP AlphaScreen [3]: 30% | agonist EC50, cAMP AlphaScreen [4]: > 100 µM | antagonist Ki = 10^-(pA2), NDP-MSH at mMC3R, cAMP AlphaScreen [5]: 1600 nM | pA2, antagonism of NDP-MSH at mMC3R, Schild analysis, cAMP AlphaScreen [5]: 5.8 | antagonist Ki = 10^-(pA2), NDP-MSH at mMC4R, cAMP AlphaScreen [6]: 200 nM | pA2, antagonism of NDP-MSH at mMC4R, Schild analysis, cAMP AlphaScreen [6]: 6.7

B1: Ac-DPhe(pI)-Arg-Trp-Arg-NH2 (peptide)
peptide: Ac-[dPhe(4-I)]RWR-NH2
SMILES: CC(=O)N[C@H](Cc1ccc(I)cc1)C(=O)N[C@@H](CCCNC(=N)N)C(=O)N[C@@H](Cc1c[nH]c2ccccc12)C(=O)N[C@@H](CCCNC(=N)N)C(N)=O
% receptor activation relative to NDP-MSH (partial agonist), cAMP AlphaScreen [1]: 50% | apparent EC50 (partial agonist), cAMP AlphaScreen [1]: 7.9 µM | % of maximal NDP-MSH response at 100 μM, cAMP AlphaScreen [2]: 25% | agonist EC50, cAMP AlphaScreen [3]: > 100 µM | agonist EC50, cAMP AlphaScreen [4]: > 100 µM | pA2, antagonism of NDP-MSH at mMC3R, Schild analysis, cAMP AlphaScreen [5]: 7.4 | pA2, antagonism of NDP-MSH at mMC4R, Schild analysis, cAMP AlphaScreen [6]: 8.7

B3: Ac-DPhe(pI)-Arg-DPhe(pI)-DLys-NH2 (peptide)
peptide: Ac-[dPhe(4-I)]R[dPhe(4-I)][dK]-NH2
SMILES: CC(=O)N[C@H](Cc1ccc(I)cc1)C(=O)N[C@@H](CCCNC(=N)N)C(=O)N[C@H](Cc1ccc(I)cc1)C(=O)N[C@H](CCCCN)C(N)=O
agonist EC50, cAMP AlphaScreen [1]: 0.035 µM | agonist EC50, cAMP AlphaScreen [2]: > 100 µM | agonist EC50, cAMP AlphaScreen [3]: > 100 µM | agonist EC50, cAMP AlphaScreen [4]: > 100 µM | pA2, antagonism of NDP-MSH at mMC3R, Schild analysis, cAMP AlphaScreen [5]: 7.5 | pA2, antagonism of NDP-MSH at mMC4R, Schild analysis, cAMP AlphaScreen [6]: 8.5

B4: Ac-DPhe(pI)-Arg-DPhe(pI)-Arg-NH2 (peptide)
peptide: Ac-[dPhe(4-I)]R[dPhe(4-I)]R-NH2
SMILES: CC(=O)N[C@H](Cc1ccc(I)cc1)C(=O)N[C@@H](CCCNC(=N)N)C(=O)N[C@H](Cc1ccc(I)cc1)C(=O)N[C@@H](CCCNC(=N)N)C(N)=O
agonist EC50, cAMP AlphaScreen [1]: 0.007 µM | agonist EC50, cAMP AlphaScreen [2]: > 100 µM | agonist EC50, cAMP AlphaScreen [3]: > 100 µM | agonist EC50, cAMP AlphaScreen [4]: > 100 µM | pA2, antagonism of NDP-MSH at mMC3R, Schild analysis, cAMP AlphaScreen [5]: 7.4 | pA2, antagonism of NDP-MSH at mMC4R, Schild analysis, cAMP AlphaScreen [6]: 8.5

Other lines, results leading:

mMC3R percent maximal stimulatory response (compared to NDP-MSH) (mMC3R): 20% @100μM
Molecule: CC(=O)N[C@H](Cc1ccc(I)cc1)C(=O)N[C@H](Cc1ccc2ccccc2c1)C(=O)N[C@@H](Cc1ccc2ccccc2c1)C(=O)N[C@H](CCCCN)C(N)=O [Peptide 34, Ac-DPhe(pI)-DNal(2’)-Nal(2’)-DLys-NH2] (Ac-[dPhe(4-I)][d2Nal][2Nal][dK]-NH2)

mMC1R agonist activity in words (mMC1R; full agonist = 90% of maximal NDP-MSH signal): full agonist activity | mMC3R percent maximal stimulatory response (compared to NDP-MSH) (mMC3R): 40% @100μM | mMC5R percent maximal stimulatory response (compared to NDP-MSH) (mMC5R): 65% @100μM
Molecule: CC(=O)N[C@H](Cc1ccc(I)cc1)C(=O)N[C@@H](CCCNC(=N)N)C(=O)N[C@H](Cc1ccc(I)cc1)C(=O)N[C@H](Cc1ccc2ccccc2c1)C(N)=O [Peptide 44, Ac-DPhe(pI)-Arg-DPhe(pI)-DNal(2’)-NH2] (Ac-[dPhe(4-I)]R[dPhe(4-I)][d2Nal]-NH2)

mMC3R percent maximal stimulatory response (compared to NDP-MSH) (mMC3R): 45% @100μM | mMC5R percent maximal stimulatory response (compared to NDP-MSH) (mMC5R): 20% @100μM
Molecule: CC(=O)N[C@H](Cc1ccc(I)cc1)C(=O)N[C@@H](CCCNC(=N)N)C(=O)N[C@H](Cc1ccc2ccccc2c1)C(=O)N[C@H](Cc1ccc2ccccc2c1)C(N)=O [Peptide 38, Ac-DPhe(pI)-Arg-DNal(2’)-DNal(2’)-NH2] (Ac-[dPhe(4-I)]R[d2Nal][d2Nal]-NH2)

mMC3R percent maximal stimulatory response (compared to NDP-MSH) (mMC3R): 35% @100μM
Molecule: CC(=O)N[C@H](Cc1ccc2ccccc2c1)C(=O)N[C@H](Cc1ccc2ccccc2c1)C(=O)N[C@@H](Cc1c[nH]c2ccccc12)C(=O)N[C@@H](CCCNC(=N)N)C(N)=O [Peptide 6, Ac-DNal(2’)-DNal(2’)-Trp-Arg-NH2] (Ac-[d2Nal][d2Nal]WR-NH2)

agonist EC50, cAMP AlphaScreen [1]: > 100 µM | agonist EC50, cAMP AlphaScreen [2]: > 100 µM | agonist EC50, cAMP AlphaScreen [3]: > 100 µM | agonist EC50, cAMP AlphaScreen [4]: > 100 µM | pA2, antagonism of NDP-MSH at mMC3R, Schild analysis, cAMP AlphaScreen [5]: 6.2 | pA2, antagonism of NDP-MSH at mMC4R, Schild analysis, cAMP AlphaScreen [6]: 7.6
B2: Ac-DPhe(pI)-Arg-Trp-DLys-NH2 (peptide)
peptide: Ac-[dPhe(4-I)]RW[dK]-NH2
SMILES: CC(=O)N[C@H](Cc1ccc(I)cc1)C(=O)N[C@@H](CCCNC(=N)N)C(=O)N[C@@H](Cc1c[nH]c2ccccc12)C(=O)N[C@H](CCCCN)C(N)=O
